Data on two molecules can be found in paper PMC2847587 (Molecular cell, 2010).

Bounds are passed on as bounds.

First the molecules themselves.
B1: FAAP24 (natural protein, human (endogenous in HeLa), UniProt Q9BTP7 1-215, looked up)
chain: MEKNPPDDTGPVHVPLGHIVANEKWRGSQLAQEMQGKIKLIFEDGLTPDFYLSNRCCILYVTEADLVAGNGYRKRLVRVRNSNNLKGIVVVEKTRMSEQYFPALQKFTVLDLGMVLLPVASQMEASCLVIQLVQEQTKEPSKNPLLGKKRALLLSEPSLLRTVQQIPGVGKVKAPLLLQKFPSIQQLSNASIGELEQVVGQAVAQQIHAFFTQPR
B2: FANCA (natural protein, human (endogenous in HeLa), UniProt O15360 1-1455, looked up)
chain: MSDSWVPNSASGQDPGGRRRAWAELLAGRVKREKYNPERAQKLKESAVRLLRSHQDLNALLLEVEGPLCKKLSLSKVIDCDSSEAYANHSSSFIGSALQDQASRLGVPVGILSAGMVASSVGQICTAPAETSHPVLLTVEQRKKLSSLLEFAQYLLAHSMFSRLSFCQELWKIQSSLLLEAVWHLHVQGIVSLQELLESHPDMHAVGSWLFRNLCCLCEQMEASCQHADVARAMLSDFVQMFVLRGFQKNSDLRRTVEPEKMPQVTVDVLQRMLIFALDALAAGVQEESSTHKIVRCWFGVFSGHTLGSVISTDPLKRFFSHTLTQILTHSPVLKASDAVQMQREWSFARTHPLLTSLYRRLFVMLSAEELVGHLQEVLETQEVHWQRVLSFVSALVVCFPEAQQLLEDWVARLMAQAFESCQLDSMVTAFLVVRQAALEGPSAFLSYADWFKASFGSTRGYHGCSKKALVFLFTFLSELVPFESPRYLQVHILHPPLVPGKYRSLLTDYISLAKTRLADLKVSIENMGLYEDLSSAGDITEPHSQALQDVEKAIMVFEHTGNIPVTVMEASIFRRPYYVSHFLPALLTPRVLPKVPDSRVAFIESLKRADKIPPSLYSTYCQACSAAEEKPEDAALGVRAEPNSAEEPLGQLTAALGELRASMTDPSQRDVISAQVAVISERLRAVLGHNEDDSSVEISKIQLSINTPRLEPREHMAVDLLLTSFCQNLMAASSVAPPERQGPWAALFVRTMCGRVLPAVLTRLCQLLRHQGPSLSAPHVLGLAALAVHLGESRSALPEVDVGPPAPGAGLPVPALFDSLLTCRTRDSLFFCLKFCTAAISYSLCKFSSQSRDTLCSCLSPGLIKKFQFLMFRLFSEARQPLSEEDVASLSWRPLHLPSADWQRAALSLWTHRTFREVLKEEDVHLTYQDWLHLELEIQPEADALSDTERQDFHQWAIHEHFLPESSASGGCDGDLQAACTILVNALMDFHQSSRSYDHSENSDLVFGGRTGNEDIISRLQEMVADLELQQDLIVPLGHTPSQEHFLFEIFRRRLQALTSGWSVAASLQRQRELLMYKRILLRLPSSVLCGSSFQAEQPITARCEQFFHLVNSEMRNFCSHGGALTQDITAHFFRGLLNACLRSRDPSLMVDFILAKCQTKCPLILTSALVWWPSLEPVLLCRWRRHCQSPLPRELQKLQEGRQFASDFLSPEAASPAPNPDWLSAAALHFAIQQVREENIRKQLKKLDCEREELLVFLFFFSLMGLLSSHLTSNSTTDLPKAFHVCAAILECLEKRKISWLALFQLTESDLRLGRLLLRVAPDQHTRLLPFAFYSLLSYFHEDAAIREEAFLHVAVDMYLKLVQLFVAGDTSTVSPPAGRSLELKGQGNPVELITKARLFLLQLIPRCPKKSFSHVAELLADRGDCDPEVSAALQSRQQAAPDADLSQEPHLF

Test in all cases: immunodepletion
Assay [1] has as its target B2.
The target in assay [2] is B1.
In assay [3] the target is MHF1 (FANCM-associated Histone Fold protein 1) (human (endogenous in HeLa), UniProt Q8N2Z9-1 1-138).
Sequence of MHF1 (FANCM-associated Histone Fold protein 1) (Q8N2Z9 whole entry): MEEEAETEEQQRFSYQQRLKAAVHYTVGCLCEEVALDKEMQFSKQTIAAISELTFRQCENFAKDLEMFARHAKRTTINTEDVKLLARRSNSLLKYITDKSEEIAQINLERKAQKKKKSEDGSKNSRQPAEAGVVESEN
Assay [4] concerns the target MHF2 (FANCM-associated Histone Fold protein 2) (human (endogenous in HeLa), UniProt A8MT69 1-81).

Sequence of MHF2 (FANCM-associated Histone Fold protein 2) (A8MT69 whole entry): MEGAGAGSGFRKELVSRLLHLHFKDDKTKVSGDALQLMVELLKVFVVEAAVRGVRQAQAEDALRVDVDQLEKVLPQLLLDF

The molecule B1 gave a percent co-depleted in assay [1] of under 30%.

With B2, the percent co-depleted in assay [2], in assay [3] and in assay [4] was under 25% in each case.
